Legend:
Test in all cases: immunoprecipitation followed by mass spectrometry
Settings in all cases: 2 h EBSS and 300 nM Torin 1; YKT6 siRNA-treated HEK293T WT cells; read off a plot
[1] = target: BET1
[2] = target: VTI1B
[3] = target: VAMP8
[4] = target: STX5
[5] = target: SNAP23
[6] = target: SEC22B
[7] = target: NSF
[8] = target: SEC24C
[9] = target: NAPA

| Substance | other: Log2 T156E : WT ratio [1] [log2] | other: Log2 T156E : WT ratio [2] [log2] | other: Log2 T156E : WT ratio [3] [log2] | other: Log2 T156E : WT ratio [4] [log2] | other: Log2 T156E : WT ratio [5] [log2] | other: Log2 T156E : WT ratio [6] [log2] | other: Log2 T156E : WT ratio [7] [log2] | other: Log2 T156E : WT ratio [8] [log2] | other: Log2 T156E : WT ratio [9] [log2] | other: Log2 T156A : WT ratio [1] [log2] | other: Log2 T156A : WT ratio [2] [log2] | other: Log2 T156A : WT ratio [3] [log2] | other: Log2 T156A : WT ratio [4] [log2] | other: Log2 T156A : WT ratio [5] [log2] | other: Log2 T156A : WT ratio [6] [log2] | other: Log2 T156A : WT ratio [7] [log2] | other: Log2 T156A : WT ratio [8] [log2] | other: Log2 T156A : WT ratio [9] [log2] |
| --- | --- | --- | --- | --- | --- | --- | --- | --- | --- | --- | --- | --- | --- | --- | --- | --- | --- | --- |
| HA–YKT6-WT (full-length, siRNA-resistant) (from UniProt O15498) T156E | -4.4 | -0.7 | -2 | -0.7 | -1.5 | -1.3 | -0.3 | 0.18 | -0.8 | – | – | – | – | – | – | – | – | – |
| HA–YKT6-WT (full-length, siRNA-resistant) (from UniProt O15498) T156A | – | – | – | – | – | – | – | – | – | 0.27 | 1.4 | 1 | 1.2 | 2.8 | 1.9 | 2.3 | 0.67 | 1.6 |
